Drawing on US20180072786A1, this text covers Difference in signal strength between Aβ1-42 monomers (100%) and Aβ1-42 oligomers and fibrils for 21 molecules.

The target in the assay is mixture of biotinylated D-enantiomeric Aβ1-42 oligomers and fibrils (UniProt P05067). In words: monoclonal phage ELISA, A450; signal on immobilized oligomers/fibrils (normalized by the 6E10 control) against signal on monomers set to 100%. Background: ELISA stands for enzyme-linked immunosorbent assay.

Ends that are not written are not given here.

Sequence of mixture of biotinylated D-enantiomeric Aβ1-42 oligomers and fibrils (P05067 672-713 limits assumed, form in doubt): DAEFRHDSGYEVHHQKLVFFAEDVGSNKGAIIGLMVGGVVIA

For EHWDFGQWWQQS (peptide, not shown: large carriers, not fully specified) [individual phage clone 6.197 (Mosd14)], the Difference in signal strength between Aβ1-42 monomers (100%) and Aβ1-42 oligomers and fibrils came out at 56.5%. The result for HFWSWTSLSMTR (peptide, not shown: large carriers, not fully specified) [individual phage clone 6.227 (Mosd8)] reads 68.6%; that for HTWTHWFSWNVP (peptide, not shown: large carriers, not fully specified) [individual phage clone 6.242 (Mosd10)], 71.9%; that for HLSWYWEKYLTS (peptide, not shown: large carriers, not fully specified) [individual phage clone 6.239 (Mosd9)], 68%. Turning to HNWSWEWWYNPN (peptide, not shown: large carriers, not fully specified) [individual phage clone 6.216 (Mosd5)], the Difference in signal strength between Aβ1-42 monomers (100%) and Aβ1-42 oligomers and fibrils was 62.7%. Take STLHFYTAFLNK (peptide, not shown: large carriers, not fully specified) [individual phage clone 6.249 (Mosd6)]: the Difference in signal strength between Aβ1-42 monomers (100%) and Aβ1-42 oligomers and fibrils turned out to be 68%. As for DLRFSSLWKLSH (peptide, not shown: large carriers, not fully specified) [individual phage clone 6.190 (Mosd19)], the figure is 50.3%. For GTMLKFSGMNLT (peptide, not shown: large carriers, not fully specified) [individual phage clone 5.57 (Mosd3)], the Difference in signal strength between Aβ1-42 monomers (100%) and Aβ1-42 oligomers and fibrils is 60%. GQWDFRQWWQPC (peptide, not shown: large carriers, not fully specified) [individual phage clone 6.255 (Mosd15)]: the Difference in signal strength between Aβ1-42 monomers (100%) and Aβ1-42 oligomers and fibrils is 60%. Consider YSYLTSYHMVWR (peptide, not shown: large carriers, not fully specified) [individual phage clone 5.60, which contains the peptide sequence of Mosd1], for which the Difference in signal strength between Aβ1-42 monomers (100%) and Aβ1-42 oligomers and fibrils is 72%. As to HTWTTYDYVWRL (peptide, not shown: large carriers, not fully specified) [individual phage clone 5.80 (Mosd2)], the Difference in signal strength between Aβ1-42 monomers (100%) and Aβ1-42 oligomers and fibrils worked out at 67.1%. The result for YSFHFEMNMGNY (peptide, not shown: large carriers, not fully specified) [individual phage clone 6.113 (Mosd13)] reads 57.2%. Consider HNWFYWTTEPYD (peptide, not shown: large carriers, not fully specified) [individual phage clone 5.81 (Mosd4)], for which the Difference in signal strength between Aβ1-42 monomers (100%) and Aβ1-42 oligomers and fibrils was 69.2%. The result for FSWSMVMPWPTA (peptide, not shown: large carriers, not fully specified) [individual phage clone 6.135 (Mosd21)] reads 46%; that for VHWDFRQWWQPS (peptide, not shown: large carriers, not fully specified) [individual phage clone 6.167 (Mosd20)], 45.7%. DWSSRVYRDPQT (peptide, not shown: large carriers, not fully specified) [individual phage clone 6.139 (Mosd16)]: the Difference in signal strength between Aβ1-42 monomers (100%) and Aβ1-42 oligomers and fibrils came out at 52.4%. As for VHWDFRQWWQQS (peptide, not shown: large carriers, not fully specified) [individual phage clone 6.141 (Mosd12)], the Difference in signal strength between Aβ1-42 monomers (100%) and Aβ1-42 oligomers and fibrils amounted to 59%. Take LSMNITTVHRWH (peptide, not shown: large carriers, not fully specified) [individual phage clone 6.245 (Mosd11)]: the Difference in signal strength between Aβ1-42 monomers (100%) and Aβ1-42 oligomers and fibrils turned out to be 57.7%. The result for FSHSHHTWFTWN (peptide, not shown: large carriers, not fully specified) [individual phage clone 6.247 (Mosd7)] reads 58%; that for ERSQWGHRDPQS (peptide, not shown: large carriers, not fully specified) [individual phage clone 6.240 (Mosd17)], 54.5%. On to DRSKGDHRITQM (peptide, not shown: large carriers, not fully specified) [individual phage clone 6.257 (Mosd18)], for which the Difference in signal strength between Aβ1-42 monomers (100%) and Aβ1-42 oligomers and fibrils was 49.2%.
